Data on 15 molecules can be found in patent US20180134769A1 (NATIONAL RESEARCH COUNCIL OF CANADA, published 2018).

For test [1], the target named is T1, TcdB-RBD-f1 (Clostridium difficile, UniProt P18177 2286-2366).
T1 construct: range 2286-2366
Nature of the test: SPR (BIACORE 3000); VHH immobilized on CM5 chip, TcdB-RBD-f1 injected. (SPR reads the build-up and loss of mass on a sensor chip optically.)

Test [2] addresses T2, Clostridium difficile toxin A (TcdA) (Clostridium difficile strain 10463, UniProt P16154 1-2710).
Test [3] concerns the target T2, Clostridium difficile toxin A (TcdA). Kind of test: SPR (BIACORE 3000); 10,287 RUs of TcdA immobilized, VHH injected.
Test [4] concerns the target T3, Clostridium difficile toxin B (TcdB) (Clostridium difficile strain 10463, UniProt P18177 1-2366).
T3 construct: range 1-2366
Nature of the test: ELISA, antigen coated.

The target of test [5] is T1, TcdB-RBD-f1. Kind of test: ELISA, antigen coated.
Test [6] concerns the target T2, Clostridium difficile toxin A (TcdA). Nature of the test: SPR (BIACORE 3000); TcdA immobilized on CM5 chip, monomeric VHH injected.
The target is the same in test [7]. Kind of test: SPR, TcdA immobilized; same value as in Table 1.
The target is the same in test [8]. Kind of test: ELISA, TcdA coated at 5 ug/ml, rabbit anti-His6 IgG-HRP.
Test [9] shares this target. The source holds these as a separate data set.
Another test concerns the target T4, TcdA-RBD-f1 (Clostridium difficile, UniProt P16154 2304-2710).
T4 construct: range 2304-2710
Kind of test: ELISA, antigen coated.

In test [10] the target is T2, Clostridium difficile toxin A (TcdA). Nature of the test: ELISA, antigen coated. (In an ELISA, binding on a coated surface is turned into a signal by an enzyme label.)
Test [11] has the same target. Nature of the test: ELISA, immobilized TcdA, serial dilution of VHH, rabbit anti-His6 IgG-HRP.

Like-named read-outs stand apart in the source and are kept apart here.

B1: B15.5 (VHH)
VHH: QVQLVESGGDLVQAGGSLRLSCAASGSISRISTMGWYRQAPGKQRELVATISTGGTTNYAESVKGRFTVSRDNAKNTMYLQMNSLKPEDTAVYYCAAGWKVVRGSLEYEYSGQGTQVTVSS
notes: llama VHH monomer; also called anti-TcdB VHH B15.5
For B1, in the test with TcdB-RBD-f1 [1], binding was characterised by a dissociation constant (Kd) of 0.357 µM; the koff (as a rule, a measure of how fast the partners let go of each other) was found to be 0.001 s⁻¹; the association rate constant (kon) (commonly the second-order rate constant of association) is 2800 M⁻¹ s⁻¹.

B2: A4.2m (VHH)
VHH: QVKLEESGGGLVQAGGSLRLSCAASGRTFNTLSMGWFRQAPGKEREFVCAVSRSGGSTYYADSVKGRFTCSRDNAKNTVYLQMNSLKPEDTAVYYCAAAATKSNTTAYRLSFDYWGQGTQVTVSS
notes: also called mutant A4.2; disulfide mutant of A4.2
As to B2, the koff in test [2] was determined as 0.016 s⁻¹. Further, in test [3], the Kd – broadly, the concentration at which binding is half-saturated – was 0.02 µM; the koff was determined as 0.019 s⁻¹; the kon amounted to 930000 M⁻¹ s⁻¹.

B3: A4.2 (VHH)
VHH: QVKLEESGGGLVQAGGSLRLSCAASGRTFNTLSMGWFRQAPGKEREFVAAVSRSGGSTYYADSVKGRFTISRDNAKNTVYLQMNSLKPEDTAVYYCAAAATKSNTTAYRLSFDYWGQGTQVTVSS
notes: also called anti-TcdA VHH A4.2
For the molecule B3, the binding result in test [4] is “no binding”. In the test with TcdB-RBD-f1 [5], the binding result is recorded as “no binding”. Besides, in test [6], binding was characterised by a dissociation constant (Kd) of 0.024 µM and the koff came to 0.016 s⁻¹. Moreover, in [7], the Kd amounted to 0.024 µM, the koff turned out to be 0.016 s⁻¹ and the association rate constant (kon) was determined as 670000 M⁻¹ s⁻¹.

B4: A24.1 (VHH)
VHH: QVQLVESGGGLVQAGGSLRLSCAASIRSFSNRNMGWFRQPPGKEREFVAGISWGGGSTRYADSVKGRFTISRDNAKKTVYLQMNSLKPEDTAVYYCAAEFGHNIATSSDEYDYWGQGTQVTVSS
notes: also called anti-TcdA VHH A24.1
As for B4, in [4], the binding result is on record as “no binding”. Moreover, the binding result with TcdB-RBD-f1 [5] is listed as “no binding”. In addition, in test [6], the affinity, expressed as Kd, was 0.26 µM; the koff came to 0.016 s⁻¹; the kon came out at 60000 M⁻¹ s⁻¹. Also, in [7], the Kd turned out to be 0.26 µM, the koff is 0.016 s⁻¹ and the kon was 60000 M⁻¹ s⁻¹.

B5: B13.6 (VHH)
VHH: QVKLEESGGGLVQAGGSLRLSCSASGRTFSSGVMGWFRQAPGKQRELVAAITTGGSTSYTDSVKGRFTISRDNAKNTVYLQMNSLKPEDTAVYYCNSVAVVGGVIKSPDYWGQGTQVTVSS
notes: llama VHH monomer; also called anti-TcdB VHH B13.6
Turning to B5, in the test with TcdB-RBD-f1 [1], the Kd turned out to be 0.4 µM, the koff was found to be 0.001 s⁻¹ and the kon turned out to be 2500 M⁻¹ s⁻¹.

B6: A20.1 (VHH)
VHH: QVQLVESGGGLAQAGGSLRLSCAASGRTFSMDPMAWFRQPPGKEREFVAAGSSTGRTTYYADSVKGRFTISRDNAKNTVYLQMNSLKPEDTAVYYCAAAPYGANWYRDEYAYWGQGTQVTVSS
notes: also called anti-TcdA VHH A20.1
For B6, the EC50 (read off the curve) (as a rule, the midpoint of the concentration-response curve) in test [8] is ~0.001 µM. In addition, the binding result in [4] was “no binding”. Further, the binding result with TcdB-RBD-f1 [5] is “no binding”. In test [6], this molecule returned a Kd of 0.002 µM, a koff of 0.0016 s⁻¹ and a kon of 820000 M⁻¹ s⁻¹. For the same molecule, in test [7], binding was put at a Kd of 0.002 µM, the koff turned out to be 0.0016 s⁻¹ and the kon was 820000 M⁻¹ s⁻¹.

B7: A20.1m (VHH)
VHH: QVQLVESGGGLAQAGGSLRLSCAASGRTFSMDPMAWFRQPPGKEREFVCAGSSTGRTTYYADSVKGRFTCSRDNAKNTVYLQMNSLKPEDTAVYYCAAAPYGANWYRDEYAYWGQGTQVTVSS
notes: also called mutant A20.1; disulfide mutant of A20.1
In test [2], B7 returned a koff of 0.0059 s⁻¹. Besides, in [3], binding was characterised by a dissociation constant (Kd) of 0.0092 µM, the koff was determined as 0.0059 s⁻¹ and the kon worked out at 640000 M⁻¹ s⁻¹.

B8: A20.1p (other)
VHH: QVQLVESGGGLAQAGGSLRLSCAASGRTFSMDPMAWFRQPPGKEREFVAAGSSTGRTTYYADSVKGRFTISRDNAKNTVYLQMNSLKPEDTAVYYCAAAPYGANWYRDEYAYWGQGTQVTVSS
For B8, the “EC50 (read off the curve)” value in test [9] was ~0.001 µM.

B9: A26.8m (VHH)
VHH: QVKLEESGGGLVQAGGSLRLSCAASERTFSRYPVAWFRQAPGAEREFVCVISSTGTSTYYADSVKGRFTCSRDNAKVTVYLQMNNLKREDTAVYFCAVNSQRTRLQDPNEYDYWGQGTQVTVSS
notes: also called mutant A26.8; disulfide mutant of A26.8
In the case of B9, the koff in test [2] came out at 0.019 s⁻¹. In test [3], the dissociation constant (Kd) was found to be 0.028 µM, the koff amounted to 0.028 s⁻¹ and the kon was determined as 1e+06 M⁻¹ s⁻¹.

B10: A26.8 (VHH)
VHH: QVKLEESGGGLVQAGGSLRLSCAASERTFSRYPVAWFRQAPGAEREFVAVISSTGTSTYYADSVKGRFTISRDNAKVTVYLQMNNLKREDTAVYFCAVNSQRTRLQDPNEYDYWGQGTQVTVSS
notes: also called anti-TcdA VHH A26.8
B10: the binding result with TcdA-RBD-f1 is given as “binds”; in the test with TcdB-RBD-f1 [5] it was “no binding”.

B11: B5.2 (VHH)
VHH: QVQLVESGGGLVQPGGSLRLSCAASGNIFSINTMGWYRQAPGKQLELVAAITSGGTTSYTDSVEGRFTISRDNAKNAVYLQMNSLKAEDTAVYYCNTVKVVGGRLDNPDYWGQGTQVTVSS
notes: llama VHH monomer; also called anti-TcdB VHH B5.2
As to B11, in the test with TcdB-RBD-f1 [1], binding was characterised by a dissociation constant (Kd) of 0.1 µM, the off-rate (koff) was found to be 0.0002 s⁻¹ and the kon was 2000 M⁻¹ s⁻¹. The binding result in test [10] is reported as “binds”.

B12: A5.1 (VHH)
VHH: QVKLEESGGGLVQAGGSLRLSCAASGRTFSMYRMGWFRQAPGKEREFVGVITRNGSSTYYADSVKGRFTISRDNAKNTVYLQMNSLKPEDTALYYCAATSGSSYLDAAHVYDYWGQGTQVTVSS
notes: also called anti-TcdA VHH A5.1
With B12, the “EC50 (read off the curve)” value in [8] was ~0.007 µM. Moreover, the binding result in [4] was “no binding”. Besides, the binding result with TcdB-RBD-f1 [5] is listed as “no binding”. In test [6], this molecule yielded a Kd of 0.003 µM, a koff of 0.005 s⁻¹ and a kon of 1.6e+06 M⁻¹ s⁻¹. In addition, in test [7], the Kd worked out at 0.003 µM, the koff worked out at 0.005 s⁻¹ and the kon worked out at 1.6e+06 M⁻¹ s⁻¹.

B13: A5.1m (VHH)
VHH: QVKLEESGGGLVQAGGSLRLSCAASGRTFSMYRMGWFRQAPGKEREFVCVITRNGSSTYYADSVKGRFTCSRDNAKNTVYLQMNSLKPEDTALYYCAATSGSSYLDAAHVYDYWGQGTQVTVSS
notes: also called mutant A5.1; disulfide mutant of A5.1
For the molecule B13, the koff in test [2] was 0.013 s⁻¹. Also, in test [3], the Kd was determined as 0.017 µM, the koff stood at 0.016 s⁻¹ and the kon was 950000 M⁻¹ s⁻¹.

B14: A5.1p (other)
VHH: QVKLEESGGGLVQAGGSLRLSCAASGRTFSMYRMGWFRQAPGKEREFVGVITRNGSSTYYADSVKGRFTISRDNAKNTVYLQMNSLKPEDTALYYCAATSGSSYLDAAHVYDYWGQGTQVTVSS
As to B14, the “EC50 (read off the curve)” value in test [9] was ~0.004 µM.

B15: A19.2 (VHH)
VHH: QVKLEESGGGLVQPGGSLRLSCAASGRTLSSYIVAWFRQAPGKEREFVAGISRRGGNSAYVESVKGRFTISRDNAKNTVYLQMNSLKPEDTAVYYCAADGSVAGWGRRSVSVSSYDYWGQGTQVTVSS
notes: also called anti-TcdA VHH A19.2
As for B15, in test [4], the binding result is “no binding”. For the same molecule, the binding result with TcdB-RBD-f1 [5] is “no binding”. In test [6], this molecule returned a Kd of 0.29 µM, a koff of 0.0039 s⁻¹ and an association rate constant (kon) of 14000 M⁻¹ s⁻¹. In test [7], binding was characterised by a dissociation constant (Kd) of 0.29 µM, the koff was 0.0039 s⁻¹ and the kon worked out at 14000 M⁻¹ s⁻¹. For the same molecule, the “EC50 (read off the curve)” value in test [11] was ~0.04 mg/L.
